Several values for one entry are separate records, joined by “and”; a condition that tells them apart may be missing. Equal values may be shown once.
What was measured:
Human S100A6 = target: T1, Human S100A6 (Homo sapiens, UniProt P06703); assay: ELISA specificity (reaction pattern of mAb); assay type: binding; design: key: ++++ positive reaction; − no reaction
T1 construct: purchased Abnova

Human S100P = target: T2, Human S100P (Homo sapiens, UniProt P25815); assay: ELISA specificity (reaction pattern of mAb); assay type: binding; design: key: ++++ positive reaction; − no reaction
T2 construct: made in house
T2 sequence (P25815 1-95): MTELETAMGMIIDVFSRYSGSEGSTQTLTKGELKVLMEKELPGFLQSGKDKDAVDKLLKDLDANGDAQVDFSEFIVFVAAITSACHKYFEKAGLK

MiaPACA-2 tumors = assay: MiaPACA-2 subcutaneous xenograft tumor development; assay type: in vivo, nude mice; settings: MiaPACA-2, end of experiment (day 30)
Experimental: MiaPACA-2 human pancreatic adenocarcinoma cell line and HCT116 human colorectal adenocarcinoma cell line in exponential growth were harvested with trypsin-EDTA (0.05%/0.02%) (Invitrogen), washed, and examined for viability by trypan blue dye exclusion. Viability was greater than 95%. For primary tumor growth, cells (either 5×10^6 or 1×10^6 cells for MiaPACA-2 or HCT116 respectively in 0.1 mL DMEM high glucose) were subcutaneously injected into the flanks of nude mice. Tumor volumes between 65-160 mm^3 for MiaPACA-2 and volumes between 155-370 mm^3 for HCT116 were used to divide the mice into two groups of either ten mice each (MiaPACA-2) or seven mice each (HCT116), such that the mean tumor size was equal between groups (approximately 100 mm^3 for MiaPACA-2 or 220 mm^3 for HCT116). Tumor growth was followed by measuring tumor diameters with calipers and the tumor volume was calculated using an approximated formula for a prolate ellipsoid: volume=(D×d^2)/2 where D is the longest axis of the tumor and d the shortest. Mice were treated either with vehicle (PBS) or with the antibody, i.p. three times per week at 25 mg/Kg/100 μL of sterile PBS, starting the treatment at defined tumor volume (100 mm^3 and 220 mm^3). […]

[1] = system: MiaPACA-2 tumors microvasculature; assay: Tumor microvasculature quantification by CD31 immunostaining; assay type: in vivo, nude mice
Experimental: Tumors from MiaPACA-2 xenograft tumor model were OCT (Tissue-Tek®, Sakura) embedded and frozen. One cryosection (5 μm) corresponding to the central part of each tumor was analyzed. Sections were fixed in acetone/chloroform (1:1) at −20° C. for 5 min, were dried over night at room temperature, washed with PBS and treated for 10 min at 4° C. in a dark chamber with H2O2 (0.03%) in PBS. Then, sections were washed with PBS and blocked for 20 min at 4° C. using PBS-BSA (2%) plus rabbit serum (5%) (Vector) and with Avidin-biotin blocking solution (Dako) for 10 min each one at 4° C. Samples were incubated for 1 hour at room temperature with primary antibody; a monoclonal rat anti-mouse antibody directed against CD31 (dil 1:200, BD PharMingen) diluted in blocking buffer. After incubation sections were incubated with a polyclonal biotinylated anti-rat antibody as secondary antibody (dil 1:500, Vector) for 30 min at room temperature and were incubated with the ABC reagent (Pierce) for 30 min at room temperature. Finally, sections were incubated with NovaRed (Vector) for 20 min at 4° C., stained with hematoxilin Harris (Sigma) for 10 seconds and mounted using DPX non aqueous mounting medium (Sigma).
Angiogenesis quantification was measured using two criteria:
8 and 39 pictures per slice, depending on the size of tumours, were taken and analyzed using the NIH ImageJ imaging software.
Comparisons between groups were made using the two-tailed nonparametric Mann Whitney U test. Differences for which P value was less than 0.05 were considered statistically significant.
The inventors investigated whether the 5C3 would actually affect tumor angiogenesis in vivo. The evaluation of tumor angiogenesis was made based on the CD31 immunostaining and two analytics approximations: MicroVessel Density (M.V.D.) and the fractional area of vessels (A.A.).

[2] = group G2, MiaPACA-2 tumors, day 30
[3] = individual animal of G2 (5C3 treatment group), MiaPACA-2 tumor, day 30

B1: 5C3: mouse monoclonal anti-S100A4 antibody, IgG1, from hybridoma ECACC 10022401; VL SEQ ID NO: 1, VH SEQ ID NO: 2 (antibody, V domains shown)
VH: EAQLQQSGAELVKPGASVKLSCTASGFNIQETYMHWVKQRPEQGLEWIGRIDPANGNTKDDPKFQGKASITVDTSSNTAYLQLSSLTSEDTAVYYCASSYAMDYWGQGTSVTVSS
VL: DVLMTQTPLSLPVSLGDQASISCRSSQSIVHSNGNTYLEWYLQKTGQSPELLIYKVSNRLSGVPDRFSGSGSGTDFTLKISRVEAEDLGVYYCFQGSHVPFTFGSGTKLEIK
modifications: VH region of the 5C3 monoclonal antibody; VL region of the 5C3 monoclonal antibody
In the case of B1, the “Reaction Pattern of mAb in ELISA, Human S100A6” value (Human S100A6) is reported as “−”, the “Reaction Pattern of mAb in ELISA, Human S100P” value (Human S100P) is reported as “−” and the “tumor weight compared with the control group” value (MiaPACA-2 tumors) is reported as “statistically significant decrease”. The “reduction in microvessel density compared with control group (vehicle)” value ([1]; MiaPACA-2 tumors) was “approximately 40%”, the “reduction of the section area occupied by vessels compared with control group (vehicle)” value ([1]; MiaPACA-2 tumors) was roughly 30% and the “AA (%) Mean” value [1, 2] was 0.69%. The “AA (%) Median” value [1, 2] was 0.59%, the “MVD (v.p./mm^2) Mean” value [1, 2] was 27.42 v.p./mm^2 and the “MVD (v.p./mm^2) Median” value [1, 2] was 26.45 v.p./mm^2. For the same molecule, the “% A.A. (Fractional area of vessels)” value [1, 3] was 1.14% and 1.26% and 0.53% (2×) and 0.41% and 0.66% and 0.72% and 0.32%, the “M.V.D. (MicroVascular Density)” value [1, 3] was 31.55 v.p./mm^2 and 44.37 v.p./mm^2 and 20.23 v.p./mm^2 and 16.81 v.p./mm^2 and 29.84 v.p./mm^2 and 36.23 v.p./mm^2 and 17.31 v.p./mm^2 and 23.05 v.p./mm^2 and the No of vessels [1, 3] was 514 and 460 and 240 and 203 and 440 and 426 and 158 and 174.

Source: patent US9657092B2, “S100A4 antibodies and therapeutic uses thereof” (LYKERA BIOMED SA, priority 2010, dated 2017)
